In the data set the test system is T1, Nc1ncnc2c1ncn2[C@@H]1O[C@H](COP(=O)(O)OP(=O)(O)OP(=O)(O)O)[C@@H](O)[C@H]1O.
T1 construct: made in house; host or cells: Sf9 insect cells, baculovirus, co-infected with Cak1-HA3 (Cdc28-His6); bacteria (MBP-Clb2)
The data set can be described thus: purified protein, by the assay type. The class given is biochemical, Saccharomyces cerevisiae. The settings on record: other: Cdc28 · MBP-Clb2; pH 7.4; 23.0 °C.

Cdc28 · MBP-Clb2 (Saccharomyces cerevisiae S288C), sequence (chain, as listed by the source S288C): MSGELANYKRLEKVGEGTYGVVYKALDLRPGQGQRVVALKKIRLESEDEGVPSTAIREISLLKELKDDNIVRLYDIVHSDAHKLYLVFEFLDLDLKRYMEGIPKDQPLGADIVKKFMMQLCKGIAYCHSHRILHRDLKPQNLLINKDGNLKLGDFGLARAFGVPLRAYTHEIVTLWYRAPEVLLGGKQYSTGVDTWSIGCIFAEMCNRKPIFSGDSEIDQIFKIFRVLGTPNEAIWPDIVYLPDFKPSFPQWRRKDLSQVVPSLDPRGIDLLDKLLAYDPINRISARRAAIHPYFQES

With “Cdc28 · MBP-Clb2 (Saccharomyces cerevisiae S288C)”, the Km is 35 µM, the turnover number (kcat) stood at 2.2 s⁻¹ and the kcat/Km worked out at 62170 M⁻¹ s⁻¹.

A word on the Km: it is the concentration of substrate that gives half-maximal velocity. What is called kcat is the maximal rate divided by the concentration of active sites. By kcat/Km is commonly meant the turnover number divided by the Michaelis constant.
